Results taken from patent publication US8840891 (RSR, dated 2014).
Like-named read-outs stand apart in the source and are kept apart here. Each block holds one substance with its values, some of them ahead of it.

What was measured:
[1] = target: TSHR coated on ELISA plate wells (RSR Ltd) (human) (UniProt P16473); assay: ELISA on TSHR-coated wells, TSH-biotin binding with HBD pool (no competitor)
[2] = target: TSHR with Asp160 mutated to Lysine (human) (UniProt P16473); assay: cell-based or functional assay
[3] = target: wild type human TSHR (human) (UniProt P16473); assay: cell-based or functional assay
[4] = target: human TSHR, wild type, expressed on CHO cells (human) (UniProt P16473); assay: cell-based or functional assay
[5] = target: human TSHR with activating mutation A623I, on CHO cells (human) (UniProt P16473); assay: cell-based or functional assay
[6] = target: human TSHR, wild type, expressed on CHO cells (human) (UniProt P16473); assay: cell-based or functional assay; remark: listed apart in the source
[7] = target: TSHR coated onto tubes (TSHR coated tubes) (human) (UniProt P16473); assay: TSHR coated tubes, in the presence of HBD pool (Tables 4a, 4b)
[8] = target: TSHR coated onto tubes (TSHR coated tubes) (human) (UniProt P16473); assay: TSHR coated tubes, in presence of HBD pool
[9] = target: TSHR coated onto tubes (TSHR coated tubes) (human) (UniProt P16473); assay: TSHR coated tubes, in the presence of HBD pool (Table 5)
[10] = target: TSHR coated onto tubes (TSHR coated tubes) (human) (UniProt P16473); assay: TSHR coated tubes

Substance: 9D33 IgG, mouse monoclonal antibody to the TSHR with blocking activity
% inhibition of basal cyclic AMP production; Exp 3; 9D33 IgG 0.001 µg/mL [4]: 12%
cyclic AMP; Exp 1; 9D33 1 µg/mL + TSH 3 ng/mL [4]: 28.7 pmol/mL
cyclic AMP; Exp 1; 9D33 10 µg/mL + TSH 3 ng/mL [4]: 23.8 pmol/mL
cyclic AMP; Exp 1; 9D33 10 µg/mL only [4]: 2.9 pmol/mL
cyclic AMP; Exp 2; 9D33 1 µg/mL + TSH 3 ng/mL [4]: 19 pmol/mL
cyclic AMP; Exp 2; 9D33 10 µg/mL + TSH 3 ng/mL [4]: 9.5 pmol/mL
cyclic AMP; Exp 2; 9D33 10 µg/mL only [4]: 1.6 pmol/mL
cyclic AMP; Exp 3; 9D33 0.01 µg/mL + TSH 3 ng/mL [4]: 47.1 pmol/mL
cyclic AMP; Exp 3; 9D33 0.1 µg/mL + TSH 3 ng/mL [4]: 35.1 pmol/mL
cyclic AMP; Exp 3; 9D33 1 µg/mL + TSH 3 ng/mL [4]: 27.8 pmol/mL
cyclic AMP; Exp 3; 9D33 10 µg/mL + TSH 3 ng/mL [4]: 13.5 pmol/mL
cyclic AMP; Exp 3; 9D33 100 µg/mL + TSH 3 ng/mL [4]: 10.5 pmol/mL
cyclic AMP; Exp 3; 9D33 100 µg/mL only [4]: 1.14 pmol/mL
cyclic AMP; Exp 4; 9D33 0.1 µg/mL + TSH 0.3 ng/mL [4]: 20.2 pmol/mL
cyclic AMP; Exp 4; 9D33 1 µg/mL + TSH 0.3 ng/mL [4]: 9.01 pmol/mL
cyclic AMP; Exp 4; 9D33 10 µg/mL + TSH 0.3 ng/mL [4]: 4.23 pmol/mL
cyclic AMP; Exp 4; 9D33 100 µg/mL + TSH 0.3 ng/mL [4]: 3.53 pmol/mL
cyclic AMP; Exp 4; 9D33 100 µg/mL only [4]: 0.99 pmol/mL
cyclic AMP; Exp 5; 9D33 0.1 µg/mL + TSH 0.3 ng/mL [4]: 14.7 pmol/mL
cyclic AMP; Exp 5; 9D33 1 µg/mL + TSH 0.3 ng/mL [4]: 6.38 pmol/mL
cyclic AMP; Exp 5; 9D33 5 µg/mL + TSH 0.3 ng/mL [4]: 3.71 pmol/mL
cyclic AMP; Exp 5; 9D33 10 µg/mL + TSH 0.3 ng/mL [4]: 3.57 pmol/mL
cyclic AMP; Exp 5; 9D33 10 µg/mL only [4]: 2.07 pmol/mL
basal cyclic AMP (buffer only 36.89); 9D33 IgG 0.001 µg/mL [5]: 29.6 pmol/mL
basal cyclic AMP (buffer only 36.89); 9D33 IgG 0.01 µg/mL [5]: 27.6 pmol/mL
basal cyclic AMP (buffer only 36.89); 9D33 IgG 0.1 µg/mL [5]: 31.8 pmol/mL
basal cyclic AMP (buffer only 36.89); 9D33 IgG 1 µg/mL [5]: 40.1 pmol/mL
cyclic AMP; Exp 1; 9D33 0.01 µg/mL + M22 3 ng/mL [6]: 47.5 pmol/mL
cyclic AMP; Exp 1; 9D33 0.1 µg/mL + M22 3 ng/mL [6]: 27.6 pmol/mL
cyclic AMP; Exp 1; 9D33 1 µg/mL + M22 3 ng/mL [6]: 5.25 pmol/mL
cyclic AMP; Exp 1; 9D33 10 µg/mL + M22 3 ng/mL [6]: 2.5 pmol/mL
cyclic AMP; Exp 1; 9D33 100 µg/mL + M22 3 ng/mL [6]: 2.13 pmol/mL
cyclic AMP; Exp 1; 9D33 100 µg/mL only [6]: 1.51 pmol/mL
cyclic AMP; Exp 2; 9D33 0.001 µg/mL + M22 3 ng/mL [6]: 79.1 pmol/mL
cyclic AMP; Exp 2; 9D33 0.01 µg/mL + M22 3 ng/mL [6]: 60.2 pmol/mL
cyclic AMP; Exp 2; 9D33 0.1 µg/mL + M22 3 ng/mL [6]: 38.7 pmol/mL
cyclic AMP; Exp 2; 9D33 1 µg/mL + M22 3 ng/mL [6]: 6.03 pmol/mL
cyclic AMP; Exp 2; 9D33 10 µg/mL + M22 3 ng/mL [6]: 0.67 pmol/mL
cyclic AMP; Exp 2; 9D33 100 µg/mL + M22 3 ng/mL [6]: 1.42 pmol/mL
cyclic AMP; Exp 2; 9D33 100 µg/mL only [6]: 1.76 pmol/mL
cyclic AMP; Exp 3; 9D33 0.001 µg/mL + M22 0.3 ng/mL [6]: 12.8 pmol/mL
cyclic AMP; Exp 3; 9D33 0.01 µg/mL + M22 0.3 ng/mL [6]: 15.2 pmol/mL
cyclic AMP; Exp 3; 9D33 0.1 µg/mL + M22 0.3 ng/mL [6]: 5.38 pmol/mL
cyclic AMP; Exp 3; 9D33 1 µg/mL + M22 0.3 ng/mL [6]: 0.83 pmol/mL
cyclic AMP; Exp 3; 9D33 10 µg/mL + M22 0.3 ng/mL [6]: 0.97 pmol/mL
cyclic AMP; Exp 3; 9D33 100 µg/mL + M22 0.3 ng/mL [6]: 1.03 pmol/mL
cyclic AMP; Exp 3; 9D33 100 µg/mL only [6]: 0.88 pmol/mL
cyclic AMP; Exp 4; 9D33 0.001 µg/mL + M22 0.3 ng/mL [6]: 43.2 pmol/mL
cyclic AMP; Exp 4; 9D33 0.01 µg/mL + M22 0.3 ng/mL [6]: 38.9 pmol/mL
cyclic AMP; Exp 4; 9D33 0.1 µg/mL + M22 0.3 ng/mL [6]: 27.6 pmol/mL
cyclic AMP; Exp 4; 9D33 1 µg/mL + M22 0.3 ng/mL [6]: 2.66 pmol/mL
cyclic AMP; Exp 4; 9D33 10 µg/mL + M22 0.3 ng/mL [6]: 1.25 pmol/mL
cyclic AMP; Exp 4; 9D33 100 µg/mL + M22 0.3 ng/mL [6]: 2 pmol/mL
cyclic AMP; Exp 4; 9D33 100 µg/mL only [6]: 2.38 pmol/mL

Substance: 125I-labelled TSH (ligand)
% of labelled protein bound [7]: 12%
% binding of labelled tracer [8]: 12%
% of labelled protein bound [9]: 15%
average % binding of labelled tracer [10]: 14%

Substance: M22 IgG (human monoclonal thyroid stimulating autoantibody, hMAb TSHR1)
% of labelled protein bound [7]: 20%
% binding of labelled tracer [8]: 17%
% of labelled protein bound [9]: 24%
average % binding of labelled tracer [10]: 21%

More lines, now with the values ahead:

Abs 450 nm [1]: 2.14 Abs 450 nm
Substance: TSH-biotin (ligand)

Mutated/wild type (%); M22 only [2]: 85%
cyclic AMP; M22 3 ng/mL only (fmol/cell well) [2]: 14300
cyclic AMP; M22 3 ng/mL only (repeat determination) (fmol/cell well) [2]: 18900
cyclic AMP; M22 3 ng/mL only (fmol/cell well) [3]: 16800
cyclic AMP; M22 3 ng/mL only (repeat determination) (fmol/cell well) [3]: 16700
Substance: M22 (antibody)
